Laboratory results: article PMC4613515

Target: His6–WT cyclin Y (Sf21) (human) (UniProt Q8ND76)
Assay: co-purification on Ni-NTA–agarose, immunoblot; His6–cyclin Y (WT or S326A) expressed in Sf21 cells and affinity-purified; defined amounts immunoblotted for 14-3-3

Sequence of UniProt Q8ND76 (Q8ND76 whole entry): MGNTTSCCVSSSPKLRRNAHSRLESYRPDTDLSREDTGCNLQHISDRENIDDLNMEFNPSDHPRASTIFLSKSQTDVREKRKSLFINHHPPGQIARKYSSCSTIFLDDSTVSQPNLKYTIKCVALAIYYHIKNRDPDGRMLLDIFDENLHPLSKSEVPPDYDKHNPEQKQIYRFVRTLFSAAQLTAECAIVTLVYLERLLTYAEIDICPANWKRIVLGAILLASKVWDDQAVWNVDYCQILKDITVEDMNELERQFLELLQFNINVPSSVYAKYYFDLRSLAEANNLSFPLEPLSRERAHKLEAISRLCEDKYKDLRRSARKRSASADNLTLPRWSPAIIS

amount of co-purified 14-3-3 against that with COS-1-derived WT cyclin Y: 100 fold less
Substance: 14-3-3 proteins (endogenous in Sf21 cells) (natural protein)
